Legend:
[1] = tested on: Raji cells expressing a membrane anchored scFv targeting Dsg3; assay: JNG assay, co-culture with Raji cells expressing a membrane anchored scFv targeting Dsg3; format: cell-based; conditions: compared to parental Raji cells
Protocol: Cellular supernatant is collected and assayed for the induction of cytokines (e.g., IL2).
JNG (Jurkat cells expressing EGFP under an NFAT promoter) were infected with lentiviral vectors encoding different single chain and multi-chain SARs by spinfection in the presence of 8 µg/ml of Polybrene® (Sigma, Catalog no. H9268). The Jurkat-NFAT-GFP cells are engineered in such a way that the IL-2 promoter, which carries NFAT binding sites, is cloned upstream of the GFP gene. These cells have been used to study signaling via TCR and CAR. The different SARs were stably expressed in Jurkat NFAT-GFP cells by lentiviral mediated gene transfer, followed by selection with puromycin or blasticidin. No drug selection was used in case the construct lacked an antibiotic resistance gene. […] GFP expression was monitored by FACS analysis. […] The structure of different constructs can be determined based on their names. […] The sequence of the other constructs in the table can be similarly determined from their names and by referring to the different Tables of this disclosure that provide the names and SEQ ID NO of the different modules. Alternatively, the composition and modular architecture of the different SAR constructs can be determined from their sequences by bioinformatics tools, including using nucleic acid and amino acids homology searches. […]

L363 (BCMA+) cells = format: cell-based
RAJI cells = assay: JNG (Jurkat NFAT-GFP) cells expressing SAR: GFP induction on co-culture with RAJI
MCF7 cells = format: cell-based

B1: CD8SP-Dsg3-EC1-EC2-L693-IgCL-TCRb-wt2-opt-6MD-F-P2A-IgHSP-CD20-vHH2-HCD25-G4S-CD19-hu-mROO5-1-vH-IgG1-CH1-TCRa-wt2-opt-6MD-F-F2A-PAC (protein)
chain: MALPVTALLLPLALLLHAARPACEWVKFAKPCREGEDNSKRNPIAKITSDYQATQKITYRISGVGIDQPPFGIFVVDKNTGDINITAIVDREETPSFLITCRALNAQGLDVEKPLILTVKILDINDNPPVFSQQIFMGEIEENSASNSLVMILNATDADEPNHLNSKIAFKIVSQEPAGTPMFLLSRNTGEVRTLTNSLDREQASSYRLVVSGADKDGEGLSTQCECNIKVKDVNDNFPMFRDSLEGQPKANPTVTLFPPSSEELQANKATLVCLISDFYPGAVTVAWKADGSPVKAGVETTKPSKQSNNKYAASSYLSLTPEQWKSHRSYSCQVTHEGSTVEKTVAPTECSGRADCGFTSESYQQGVLSATILYEILLGKATLYAVLVSALVLMAMVKRKDSRGRAKRSGSGATNFSLLKQAGDVEENPGPTSATMDWIWRILFLVGAATGAHSGPQVQLQESGGGLAQAGGSLRLSCAASGRTFSMGWFRQAPGKEREFVAAITYSGGSPYYASSVRGRFTISRDNAKNTVYLQMNSLKPEDTAVYYCAANPTYGSDWNAENWGQGTQVTVSSGSGGGGSGGGGSGGGGSFEQVQLQQPGAELVKPGASVKMSCKASGYAFSSYWINWMKQKPGQGLEWIGQIYPGDGDTNYNGKFKGRATLTADTSSSTAYMQLSSLTSEDSAVYFCARSITTVVGCAMDYWGQGTSVTVSSTRASTKGPSVFPLAPSSKSTSGGTAALGCLVKDYFPEPVTVSWNSGALTSGVHTFPAVLQSSGLYSLSSVVTVPSSSLGTQTYICNVNHKPSNTKVDKRVEPKSCIPEDTFFPSPESSCDVKLVEKSFETDTNLNFQNLSVIGFRILLLKVAGFNLLMTLRLWSSRAKRSGSGVKQTLNFDLLKLAGDVESNPGPSRGHMTEYKPTVRLATRDDVPRAVRTLAAAFADYPATRHTVDPDRHIERVTELQELFLTRVGLDIGKVWVADDGAAVAVWTTPESVEAGAVFAEIGPRMAELSGSRLAAQQQMEGLLAPHRPKEPAWFLATVGVSPDHQGKGLGSAVVLPGVEAAERAGVPAFLETSAPRNLPFYERLGFTVTADVEVPEGPRTWCMTRKPGA
GFP induction [1]: increased GFP induction

B2: 6821 (protein)
chain: MALPVTALLLPLALLLHAARPQLQLQESGPGLVKPSETLSLTCTVSGDSISSGDYYWGWIRQPPGKGLEWIGHIYYSGVTYYNPSLKSRVTISVDTSRNQFSLKLSSVTAADTAVYYCTREDSSNWRSRGQGTLVTVSSLEGQPKANPTVTLFPPSSEELQANKATLVCLISDFYPGAVTVAWKADGSPVKAGVETTKPSKQSNNKYAASSYLSLTPEQWKSHRSYSCQVTHEGSTVEKTVAPTECSPIKTDVITMDPKDNCSKDANDTLLLQLTNTSAYYMYLLLLLKSVVYFAIITCCLLRRTAFCCNGEKSRAKRSGSGATNFSLLKQAGDVEENPGPTSMDWIWRILFLVGAATGAHSFEVQLLESGGGLIQPGGSLRLSCAASGFTFSSHAMTWVRQAPGKGLEWVSAISGSGDYTHYADSVKGRFTISRDNSKNTVYLQMNSLRAEDSAVYYCAKDEDGGSLLGHRGQGTLVTVSSTRASTKGPSVFPLAPSSKSTSGGTAALGCLVKDYFPEPVTVSWNSGALTSGVHTFPAVLQSSGLYSLSSVVTVPSSSLGTQTYICNVNHKPSNTKVDKRVEPKSCEVKTDSTDHVKPKETENTKQPSKSCHKPKAIVHTEKVNMMSLTVLGLRMLFAKTVAVNFLLTAKLFFLRAKRSGSGVKQTLNFDLLKLAGDVESNPGPSRGHMTEYKPTVRLATRDDVPRAVRTLAAAFADYPATRHTVDPDRHIERVTELQELFLTRVGLDIGKVWVADDGAAVAVWTTPESVEAGAVFAEIGPRMAELSGSRLAAQQQMEGLLAPHRPKEPAWFLATVGVSPDHQGKGLGSAVVLPGVEAAERAGVPAFLETSAPRNLPFYERLGFTVTADVEVPEGPRTWCMTRKPGA
modifications: Synthetic Polynucloetide
GFP expression on co-culture with L363 (BCMA+) (L363 (BCMA+) cells): strongly induced GFP expression
GFP expression on co-culture with RAJI (RAJI cells): strongly induced GFP expression

B3: 21873 (protein)
chain: MALPVTALLLPLALLLHAARPDIQMTQSPSSLSASVGDRVTITCRASQDISSYLNWYQQKPGKAPKLLIYYTSRLHSGVPSRFSGSGSGTDFTLTISSLQPEDFATYYCQQGNTLPYTFGQGTKVEIKRLEDLKNVFPPEVAVFEPSEAEISHTQKATLVCLATGFYPDHVELSWWVNGKEVHSGVCTDPQPLKEQPALNDSRYCLSSRLRVSATFWQNPRNHFRCQVQFYGLSENDEWTQDRAKPVTQIVSAEAWGRADCGFTSESYQQGVLSATILYEILLGKATLYAVLVSALVLMAMVKRKDSRGRAKRSGSGATNFSLLKQAGDVEENPGPTSMDWIWRILFLVGAATGAHSFEVQLVESGGGLVQPGGSLRLSCAASGYTFSDYFMSWVRQAPGKGLEWVATISNGGTYTYYPDSVKGRFTISRDNSKNTLYLQMNSLRAEDTAVYYCARFDGYIFDYWGQGTLVTVSSTRIQNPDPAVYQLRDSKSSDKSVCLFTDFDSQTNVSQSKDSDVYITDKCVLDMRSMDFKSNSAVAWSNKSDFACANAFNNSIIPEDTFFPSPESSCDVKLVEKSFETDTNLNFQNLSVIGFRILLLKVAGFNLLMTLRLWSSRAKRSGSGVKQTLNFDLLKLAGDVESNPGPSRGHMTEYKPTVRLATRDDVPRAVRTLAAAFADYPATRHTVDPDRHIERVTELQELFLTRVGLDIGKVWVADDGAAVAVWTTPESVEAGAVFAEIGPRMAELSGSRLAAQQQMEGLLAPHRPKEPAWFLATVGVSPDHQGKGLGSAVVLPGVEAAERAGVPAFLETSAPRNLPFYERLGFTVTADVEVPEGPRTWCMTRKPGA
NFAT-GFP ASSAY: MCF-7 (MCF7 cells): did not show GFP induction

Source: patent publication US20230212319A1, “NOVEL ANTIGEN BINDING DOMAINS AND SYNTHETIC ANTIGEN RECEPTORS INCORPORATING THE SAME” (University of Southern California, priority 2020, published 2023)
